Among the data in paper PMC4497658 are EC50 values, retold here.

pEC50: −log10 of the molar value.

This assay addresses IFNAR receptors (IFNAR1 and IFNAR2) on WISH cells (human (endogenous in WISH)) (UniProt P17181). Kind of assay: radioligand binding; in situ competition on WISH cells: ^125I-labeled wild type IFNα2 (200,000 cpm/well) with unlabeled IFN at ten concentrations (4-fold steps from 200 nM for the antagonists, 10 nM for IFNα2-α8tail), 1 hr at room temperature, culture medium + 0.1% sodium azide.

The pEC50 is the EC50 on a negative log10 scale, so that one unit is a factor of ten. For IFN-1ant_(N65A) (ligand), the pEC50 is 8.77.
On to “YNS (IFNα2 N57Y, E58N and Q61S) (ligand)”, for which the pEC50 is 12.00.
To “IFN-1ant (IFNα2 R120E with the α8-tail) (ligand)” belongs 9.30; to IFN-1ant_(Y85M) (ligand), 9.10.
Consider IFN-1ant_(Y85A) (ligand), for which the negative-log EC50 (pEC50) was 8.70.
For IFNα2-α8tail (ligand), the pEC50 is 9.82.
